Numbering of substitutions follows the chain as printed. In names and notes the source's numbering stands.
B1: rat insulin degradation enzyme (IDE) variant A890V (valine for alanine at amino acid 890) (enzyme)
chain: MRNGLVWLLHPALPSTLHSILGARPPPVKRLCGFPKQIYSTMNNPAIQRIEDHIVKSPEDKREYRGLELANGIKVLLISDPTTDKSSAALDVHIGSLSDPPNIPGLSHFCEHMLFLGTKKYPKENEYSQFLSEHAGSSNAFTSGEHTNYYFDVSHEHLEGALDRFAQFFLCPLFDASCKDREVNAVDSEHEKNVMNDAWRLFQLEKATGNPKHPFSKFGTGNKYTLETRPNQEGIDVREELLKFHSTYYSSNLMAICVLGRESLDDLTNLVVKLFSEVENKNVPLPEFPEHPFQEEHLKQLYKIVPIKDIRNLYVTFPIPDLQQYYKSNPGHYLGHLIGHEGPGSLLSELKSKGWVNTLVGGQKEGARGFMFFIINVDLTEEGLLHVEDIILHMFQYIQKLRAEGPQEWVFQECKDLNAVAFRFKDKERPRGYTSKIAGKLHYYPLNGVLTAEYLLEEFRPDLIDMVLDKLRPENVRVAIVSKSFEGKTDRTEQWYGTQYKQEAIPEDVIQKWQNADLNGKFKLPTKNEFIPTNFEILALEKDATPYPALIKDTAMSKLWFKQDDKFFLPKACLNFEFFSPFAYVDPLHCNMAYLYLELLKDSLNEYAYAAELAGLSYDLQNTIYGMYLSVKGYNDKQPILLKKITEKMATFEIDKKRFEIIKEAYMRSLNNFRAEQPHQHAMYYLRLLMTEVAWTKDELKEALDDVTLPRLKAFIPQLLSRLHIEALLHGNITKQAALGVMQMVEDTLIEHAHTKPLLPSQLVRYREVQLPDRGWFVYQRRNEVHNNCGIEIYYQTDMQSTSENMFLELFCQIISEPCFNTLRTKEQLGYIVFSGPRRANGIQGLRFIIQSEKPPHYLESRVEAFLITMEKAIEDMTEEAFQKHIQALVIRRLDKPKKLSAECAKYWGEIISQQYNYDRDNIEVAYLKTLSKDDIIKFYKEMLAVDAPRRHKVSVHVLAREMDSCPVVGEFPSQNDINLSEAPPLPQPEVIHNMTEFKRGLPLFPLVKPHINFMAAKL
B2: rat insulin degradation enzyme (IDE), GK allele containing both H18R and A890V (enzyme)
chain: B1 chain with H18R
B3: rat insulin degradation enzyme (IDE) variant H18R (arginine for histidine at amino acid 18) (enzyme)
chain: B1 chain with H18R, V890A

The binders below were run against insulin (125I-insulin mixed with unlabeled insulin) (assay: cell-based or functional assay).

Binder | insulin degrading activity in intact COS-1 cells, percentage of wild type activity
B1 | 95 % of wild type activity
B2 | 69 % of wild type activity
B3 | 89 % of wild type activity

Source: US20020035733A1 (AREXIS, published 2002)
